Results as given in patent US20180222987A1.

B1: 6C9-C9 anti-CD3 antibody (antibody, V domains shown)
VH: AVQLVESGGGLVRPKESLKISCAASGFTFRNAAMYWVRQAPGKGLEWVARIRTQPNNYAKYYADSVKDRFTISRDDSKSMVYLQMDNLKTEDTAMYYCTGLVVTAMDAWGQGTSVTVSS
VL: DIQMTQSPSFLSASVGDRVTINCKASQNINKYLNWYQQKLGEAPKLLIYVTNNLQTGIPSRFSGSGSGTDYTLTISSLQPEDVATYFCLQHRSMYTFGTGTKLELK
B2: 11F9-F8 anti-CD3 antibody (antibody, V domains shown)
VH: EVQLVETGGTLVQPGKSLKLTCATSGFTFSNAWMHWVRQSPEKQLEWVAQIKAKSNNYATYYAESVKGRFTISRDDSKTSVYLQLNSLREEDTAIYYCRGTQYGYNPFDYWGQGVMVTVSS
VL: DVVLTQTPVSLSVSLGGQVSISCRSSQSLVHNNGNTYLSWSLQKPGQSPQVLIYKVSNRFSGISNRFSGSGSGTDFTLKISRVEPDDLGVYYCGQGAHYPFTFGSGTKLEIK
B3: 8H2-F3 anti-CD3 antibody (antibody, V domains shown)
VH: QIQLVQSGPELKKPGESVKISCKASGYTFTDFAMNWVKQAPGNGLKWMGWINTQTGKPTYADGFKQRFVFSLETSASTIYLQINNLNIEDTATYFCTRGALASVGQGVMVTVSS
VL: DVVMTQTPVSLSVAIGQPASISCKSSQSLVGTSGKTYLNWLLQRPGQSPKRLIYLVSKLDSGIPDRFSGSGSETDFTLKISRVETDDLGVYYCLQGSHFPLTFGSGTKLEIK
B4: 4B4-D7 anti-CD3 antibody (antibody, V domains shown)
VH: EVQLVETGGRLVQPGRSLKLTCATSGFTFSNAWMHWVRQSPEKQLEWVAQIKARSNNYATYYAESVKGRFTISRDDSKSTIYLQMNSLKEEDTAIYYCRGTYYASKPFDYWGQGVMVTVSS
VL: DVVMTQTPVSLSVSLGGQVSISCRSSQSLVHDNGNTYLSWSLQRPGQSPQVLIYKVSNRFSGTSDRFTGSGSGTDFTLKISRVEPDDLGVYYCGQGTQYPFTFGSGTKLEIK
B5: 4E7-C9 anti-CD3 antibody (antibody, V domains shown)
VH: EVQVVETGGSLVQPGKSLKLTCATSGFTFSNAWMHWVRQSPEKQLEWVAQIKDKSNNYATYYAESLKGRFTISRDDPKRSIYLQMNSLREEDTAIYYCRYVHYGIGYAMDAWGQGTSVTVSS
VL: DVVMTQTPVSLSVSLGGQVSISCRSSQSLEHNNGNTYLSWYLQKPGQSPQPLIYKVSNRFSGISDRFSGSGSGTDFTLKISRVEPDDLGVYYCGQGTQYPFTFGPGTKLELK
B6: 13C1-F6 anti-CD3 antibody (antibody, V domains shown)
VH: EVQLVETGGTLVQPGKSLKLTCATSGFTFSNAWMHWVRQSPEKQLEWVAQIKAKSNNYATYYAESVKGRFTISRDDSKTSVYLQLNSLREEDTAIYYCRGTQYGYNPFDYWGQGVMVTVSS
VL: DVVMTQSPVSLSVSLGGQVSISCRSSQSLVHNNGNTYLSWYLQRSGQSPQLLIYKVSNRLSGISDRFSGSGSGTDFTLKISRIEPDDLGVYYCGQGTQYPFTFGSGTRLEIK
B7: 11D7-C3 anti-CD3 antibody (antibody, V domains shown)
VH: EVQFVETGGSLVQPGKSLKLTCATSGFTFSNAWMHWVRQSPEKQLEWVAQIKAKSNNYATYYAESVKGRFTISRDDSKSSVYLQMNSLKEEDTATYYCRGLYYGLSPSDYWGQGVMVTVSS
VL: DVVMTQTPVSLSVSLGGQVSISCRSSQSLVHNNGNTYLSWYLQKPGQSPQLLIYKVSNRFSGISDRFSGSGSGTDFTLKISRVEPDDLGVYYCGQGTHYPFTFGSGTKLEIK
B8: 13H2-C3 anti-CD3 antibody (antibody, V domains shown)
VH: EEELVETGGSLVQPGKSLKLTCATSGFTFSNAWMHWVRQSPDKQLEWVAQIKAKSNNYATYYAESVKGRFTISRDDSKSSVYLQMNNLKEEDTAIYYCRYVHYGLAPMDAWGQGTSVTVSS
VL: DVVMTQTPVSLSVSLGGQVSISCRSSQSLVHNNGNTYLSWYLQKAGQSPQLLIYKVSNRFSGISDRFSGSGSGTDFILKISRVEPDDLGVFYCGQGTQYPFTFGAGTKLELK
B9: 10E6-G6 anti-CD3 antibody (antibody, V domains shown)
VH: EVQLVETGGGLVQSGKSLKLTCATSGFTVTNAWMHWVRQSPEKQLEWVAQIKAKSNNYETYYAESVKGRFTISRDDSKSSVYLQMNSLKEEDTAIYYCRGTQYGYNPFDYWGQGVMVTVSS
VL: DVVMTQSPVSLSVSLGGQVSISCRSSQSLVHNNGYTYLSWYLQKPGQSPQVFIYKVSNRFSGISDRFSGSGSGTDFTLKISRIEPDDLGVYYCGQGTHYPFTFGSGTKLEIK
B10: 12G3-E8 anti-CD3 antibody (antibody, V domains shown)
VH: EVRVVETGGSLVQPGKSLKLTCATSGFTFSLAWMHWVRQSPEKKLEWVAQIKDKANNYATYYAESVKGRFTISRDDSKRSVYLQMNRLKEEDTAIYYCRGVYYGFSMTPFDYWGQGVMVTVSS
VL: DVAMTQTPVSLSVSLGGQVSISCRSSQSLVHNNGNTYLSWYLQKPGQSPQVLIYKVSNRFSGISDRFSGSGSGADFTLKISRVEPDDLGVYYCGQGTQYPFTFGAGTKLELK
B11: 11F3-B9 anti-CD3 antibody (antibody, V domains shown)
VH: EVQLVETGGSLVQPGKSLTLTCATSGFTFSNAWMHWVRQSPEKQLEWVAQIKAKSNNYATYYAESVKGRFTISRDDSKRSVYLQMNSLKEEDTAIYYCRYVNYGLAPMDVWGQGTSVTVSS
VL: DVVMTQTPVSLSVSLGGQVSISCRSSQSLVHDNGNTYLSWYLQKPGQSPQLLIYKVSNRFSGFSDRFSGSGSGTDFTLKISRVEPDDLGVYYCGQGTQYPFTFGAGTKLELK
B12: 10F4-C10 anti-CD3 antibody (antibody, V domains shown)
VH: EVQLVETGGSLVQPGKSLKITCATSGFTFSNAWMHWVRQSPEKQLEWVAQIKAKSNNYATYYAESVKGRFTISRDDSKSSIYLQMNSLKEEDTAIYYCRAVNYGNYPLDYWGQGVMVTVSS
VL: DVVMTQTPVSLSVSLGGQVSISCRSSQSLVHNNGNTYLSWCLQKPGQSPQLLIYKVSNRFSGISDRFSGSGSGTDFTLKISRVEPDDLGVYYCGQGTQYPFTFGAGTKLELK
B13: 18H11-F10 anti-CD3 antibody (antibody, V domains shown)
VH: EVQLVESGGGLVQPGRSLKLSCAASGFIFSDYYMAWVRQAPKKGLEWVATISISGSRTYYPDSVKGRFTVSRDNAKSSLYLQMNSLKSEDTATYYCATNNPGGWFVYWGQGTLVTVSS
VL: NIQMTQSPSLLSASVGDRVTLSCKAGQNINNDLAWYQQKLGEAPRLLIYNANSLQTGIPSRFSGSGSGADFTLTISSLQPEDVATYFCQQYSSGDTFGAGTKLELK
B14: 20E5-F10 anti-CD3 antibody (antibody, V domains shown)
VH: EVQLVETGENLVQPGKSLRLTCATSGFSFSNAWMHWIRQSPEKQLEWVAQIKDKSNNYATYYAESVNGRFTISRDDSKSSIYLHMDNLKEEDSAIYYCRYVHYGVRFFYTMDVWGQGTSVTVSS
VL: DVVMTQTPVSLSVSLGDQVSISCRPSQSLVHNNGNTYLSWYLQKPGQSPHPLIYKVSNRFSGISDRFSGSGSGTDFTLKISRVEPDDLGVYYCGQGTQYPFTFGSGTKLEIK
B15: 3H6-D2 anti-CD3 antibody (antibody, V domains shown)
VH: EVQLVETGGRLVQPGKSLKLTCATSGFTFSNAWMHWVRQSPEKQLEWVAQIKDKSNNYATYYAESVKGRFTISRDDSKSIIYLQMNSLKEEDTAIYYCRALTYYGYKRDAMDGWGHGTSVTVSS
VL: DVVMTQTPVSLSVSLGGQVSISCRSSQSLVHNNGNTYLSWYLQKPGQSPQLLIYKVSNRFSGISDRFSGSGSGTDFTLKISRVEPDDLGVYYCGQGTQYPFTFGAGTKLELK
B16: 5B1-G2 anti-CD3 antibody (antibody, V domains shown)
VH: EVQVVETGGSLVQPGKSLKLTCATSGFSFSNAWMHWVRQSPEKQLEWVAQIKDKANNYATYYAESVKGRFTISRDDSKGSIYLQMNSLKEEDTAVYYCRGLYYGLFPSDYWGQGVMVTVSS
VL: DVVMTQTPVSLSVSLGGQVSISCRSSQSLVHNNGNTYLSWYLLKPGQSPQLLIYKVSNRFSGISDRFSGGGSGTDFTLKISRLEPDDLGIYYCGQGTQYPFTFGSGTKLEIK
B17: 16F8-A7 anti-CD3 antibody (antibody, V domains shown)
VH: VETGGNLVQPGKSLKLTCATSGFTFSNAWMHWVRQSPEKQLEWVAQIKAKSNNYATYYAESVKGRFTISRDDSKSSVYLQMNSLKEEDTAIYYCRYVNYGLAPMDVWGQGTSVTVSS
VL: DVVMTQTPVSLSVSLGGQVSISCRSSQSLVHNNGNTYLSWYLQKPGQSPQLLIYKVSNRFSGFSDRFSGSGSGTDFTLKISRVEPDDLGVYYCGQGTQYPFTFGAGTKLELK
B18: 18G9-H11 anti-CD3 antibody (antibody, V domains shown)
VH: EVQLVETGGSLVQPGKSLKLTCATSGFTFSNAWIQWVRQSPEKQLEWVAQIKAKSNNYATYYAESVKGRFTISRDDSKSSVYLQMNSLKEEDTALYYCTWRHYYSSHTMDAWGQGTLVTVSS
VL: DVVMTQTPVSLSVSLGGQVSISCRSSQSLVHNNGNTYLSWYLQKPGQSPQLLIYKVSNRFSGISDRFSGSGSGTDFTLKISRVAPTDLGVYYCGQGSQYPFTFGAGTKLELK
B19: 12D2-E5 anti-CD3 antibody (antibody, V domains shown)
VH: EVKLVESGGGLVQPGRSLRLSCAASGFNFYAYWMGWVRQAPGKGLEWIGEIKKDGTTINYTPSLKDRFTISRDNAQNTLYLQMTKLGSEDTALYYCAREERDGYFDYWGQGVMVTVSS
VL: QFVLTQPNSVSTNLGSTVKLSCKRSTGNIGSNYVNWYQQHEGRSPTTMIYRDDKRPDGVPDRFSGSIDRSSNSALLTINNVQTEDEADYFCQSYSSGIVFGGGTKLTVL
B20: humanized 4B4 Fab 4B4_1 (VL1a / VH1B) (Fab, V domains shown)
VH: QVQLVETGGGLVKPGQSLKLTCATSGFTFSNAWMHWVRQSPEKGLEWVAQIKARSNNYATYYAVSVKGRFTISRDDSKSTIYLQMNSLTPEDTAIYYCRGTYYASKPFDYWGQGVMVTVSS
VL: DVVMTQTPVSLSVSVGGRVSISCRSSQSLVHDNGNTYLSWSLQKPGKSPKVLIYKVSNRFSGVSSRFTGSGSGTDFTLKISSVQPDDLGVYYCGQGTQYPFTFGSGTKLEIK
B21: humanized 4B4 Fab 4B4_2 (VL1b / VH1B) (Fab, V domains shown)
VH: QVQLVETGGGLVKPGQSLKLTCATSGFTFSNAWMHWVRQSPEKGLEWVAQIKARSNNYATYYAVSVKGRFTISRDDSKSTIYLQMNSLTPEDTAIYYCRGTYYASKPFDYWGQGVMVTVSS
VL: DVVMTQTPVSLSVSVGGRVSISCRSSQSLVHDNANTYLSWSLQKPGKSPKVLIYKVSNRFSGVSSRFTGSGSGTDFTLKISSVQPDDLGVYYCGQGTQYPFTFGSGTKLEIK

Target: Macaca fascicularis CD3ε/δ-Fc fusion heterodimer (Macaca fascicularis) (UniProt Q95LI8)
Test: SPR single point, hybridoma supernatant

Macaca fascicularis CD3ε/δ-Fc fusion heterodimer (Macaca fascicularis), sequence (chain, as listed by the source mutant, chain 1 of 2): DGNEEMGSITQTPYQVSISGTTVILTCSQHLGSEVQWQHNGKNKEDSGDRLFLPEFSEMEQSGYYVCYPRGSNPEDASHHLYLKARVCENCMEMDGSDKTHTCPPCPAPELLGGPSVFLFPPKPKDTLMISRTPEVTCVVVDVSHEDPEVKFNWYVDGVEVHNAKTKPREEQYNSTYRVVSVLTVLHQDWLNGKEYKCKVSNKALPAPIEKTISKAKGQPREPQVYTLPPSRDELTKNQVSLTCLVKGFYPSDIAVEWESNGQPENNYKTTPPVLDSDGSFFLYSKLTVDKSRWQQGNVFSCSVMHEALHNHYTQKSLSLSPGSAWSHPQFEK
Macaca fascicularis CD3ε/δ-Fc fusion heterodimer (Macaca fascicularis), sequence (Q95LI8 22-105, stated change not applied, chain 2 of 2): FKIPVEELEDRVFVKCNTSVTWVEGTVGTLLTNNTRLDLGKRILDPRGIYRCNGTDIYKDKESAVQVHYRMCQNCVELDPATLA

Compared with B1, B2 is lower in RU at 25 nM: 32 RU for the first, 16 RU for the second.

First: B3
Second: B4
The RU at 25 nM of the first is higher: 40 RU for the first, 14 RU for the second.

Going from B5 to B6, the RU at 25 nM rises from 10 RU to 15.5 RU.

Going from B7 to B8, the RU at 25 nM falls from 10 RU to 7 RU.

Going from B9 to B10, the RU at 25 nM rises from 0 RU to 17 RU.

Going from B11 to B12, the RU at 25 nM rises from 17 RU to 27 RU.

First: B13
Second: B14
The RU at 25 nM of the first is higher: 55 RU for the first, 8 RU for the second.

Compared with B15, B16 is lower in RU at 25 nM: 7 RU for the first, 0.5 RU for the second.

Compared with B17, B18 is lower in RU at 25 nM: 22.5 RU for the first, -7 RU for the second.

Work on B19 yielded an RU at 25 nM of 5 RU.

Target: Macaca fascicularis CD3ε/δ-Fc fusion heterodimer (Macaca fascicularis) (UniProt Q95LI8)
Test: SPR Biacore, Fab; unit inferred

First: B20
Second: B21
The Kd of the first is 2.4-fold lower: 3.13 nM for the first, 7.57 nM for the second.
